Results from the DeepSol protein solubility set.

assay: soluble on expression in E. coli; label from the status in PepcDB or PDB records

Sequence	soluble on expression in E. coli
SLKPSRPVETAYLQGQPGTPFPVIRGIGWSEDQGRRPDMEDGMVAISNLAGVANAWLLGIYDGHGGRQMVEMLLQKIHGNVLQHLRSRAIERWQRYRQRAMSRLQDIRRRLDELHFQQQLACRDVRVLMPPTQRLVELLRLGRICEWVLQCEEPSQEGRTETEKSSASKAPTPPSFLTICTEEDVHRALDEAFVQTDVEILQRLTHPSDHKAGCERDARRVESLGGWVFGERVNGMLAIGRAFGDWSLKLPPGKANPPYSPTSGAFDRLLNIFGTSPSHAAEQAAAERKEYVVSNAPDVRSVSLTPERPAQVPGGIRRNSPSSRASESQTAMSGQETGAGRVPGLLVLGCDGLFDVCSDQVVAHLALEFLRQLVAVHPDMSPCEAAKATARMLIEEAIGVRGSTDNVSVMVVLFHSFGFSGRDGVTPSPPTWYAAAAAKFAWLAEGVSRNVFGLPTASPIALPREPEDKTVD	not soluble
IEPEFIGNENYKNLIVSWGTTYYPIKDALEELNLKDTAFIHFSQIYPISESGEKYLKKAEKVVNIELNYTGQLGRLLKREFGIEMNDSILKYDGRVFSVEELSEKIKKVLRG	not soluble
RSECMGFFRRLLGLSWISIPKLPKKERKNNHDESENESLGNGYDTGESENLSGYLNNSEYEDGPAGESADDPDDYIPPHKEEGENDSSQSIQMGSMTVELAQEEEKADEALLAEIKTDPRMDLASYKFPSVDLLTQYDLQQPPIDMNEIEENQKRIIATLDSFKIHVTPIKATVGPTVTLYEVAPDSGIKISRIRNLEDDIAMSLKAVGGIRIIAPMPGKGTIGIEVPNRKPQTVSMYSVLTSKKYQESDMDLPVALGKTITNEVFIFDLCKMPHLLIAGATGQGKSVGLNAMITSLLYKKHPAELKFVLVDPKMLEFAVYEAIERHYLAKLPDEDRAIVTDMTKVVPTLNSLCIEMDNRYRMLTEARVRNIKEYNDQIISGKLSRLHGHKFLPYIVLIVDEFADLIMTSGKEVERPITRIAQKARAAGIHMVVATQRPSTDIITGIIKANFPARIAFKVFSMIDSRTILDQPGANQLVGRGDMLFYQGKDTVRLQCAFLDTPECEAVTHHISLQESYTSAYELPEYVPEGEEGGPKAFNPQEKDPLFEEVARMVVNSQQGSTSNIQRKFNIGYNRAGRLMDQLEGAGIVSPQDGSKPRQVLIQDEMSLERLFETLR	not soluble
MTRRCELLVVGAGPAGMAAATQSAALGVDTLLLDEQATPGGQIYRAITTTALTRPDILGPDYWHGASLLEPLRASGAAYLSGATVWAVSRGAEAGDGGAFEVAYSVGGQADILRARHILLATGALERPFPIPGWTLPGVVTAGAAQILLKTAAIVPGEHAVLAGGGPLLYLLAWQYLNAGVRIERLLETTAPGGLARALPHALDFLRSPYLAKGLKLMRAVRAHVPITRGVRDLRAQGRERLESLSYRAGGRTHDMPARHLMLHQGVVPNLNLSRALGVDHQWNPTQACWQPRVDDWGATSVAGIGIAGDGADIGGAIAAEHRGRLAALQAAVALGRIDDARRDREARAPRRALARAMRGRAFFDVLYRPADAYRRPGDDTIVCRCEEITAGQIRATVRLGCSGPNQMKAFLRCGMGPCQGRLCGLTVSELIAHERGVPLPEVGYYRLRFPTKPVTLGELASLPQTEASRQAVVRLKKTALEHHHHHH	not soluble
MSLRPLAIIGPTGAGKSQLALDVAARLGARVSVEIVNADAMQLYRGMDIGTAKLPVSERRGIPHHQLDVLDVTETATVARYQRAAAADIEAIAARGAVPVVVGGSMLYVQSLLDDWSFPATDPSVRARWERRLAEVGVDRLHAELARRDPAAAAAILPTDARRTVRALEVVELTGQPFAASAPRIGAPRWDTVIVGLDCQTTILDERLARRTDLMFDQGLVEEVRTLLRNGLREGVTASRALGYAQVIAALDAGAGADMMRAAREQTYLGTRRYVRRQRSWFRRDHRVHWLDAGVASSPDRARLVDDAVRLWRHVTEGHHHHHH	soluble
MSSPKVGFVSLGRPKALVDSERILTQLRTEGYEVTPEYNDADVVVVNTCGFIDSAKAESLEAIGEAIAENGKVIVTGCMGVEESVIRQVHPSVLAVTGPQQYEEVVRAVHGVAPPRQDHNPYLDLVPPQGVKLTPRHYAYLKISEGCNHRCSFCIIPSMRGDLVSRPVGDVLSEAERLVRAGVKELLVISQDTSAYGVDIKYRSGFWNGRPVKTRMTELCAALSELGVWTRLHYVYPYPHVDEVIGLMADGKVLPYLDIPFQHASPRILRAMKRPAFEDKTLARIKRWREECPDLTLRSTFIVGFPGETEEDFQYLLDWMSEAQLDRVGCFQYSPVEGAPANTLDNPVPDEVKQERWERFMEHQQAISTARLSTRVGREIDVLIDSVDEEGAVGRSSADAPEIDGCVYVDSEQPLKAGDMVRVRVTDSDEYDLWGERIALEHHHHHH	soluble
MGSDKIHHHHHHMIREVKFESQDRRIKQIIAALNENGIKDIEEANAICEAAGLDPYKTCEETQPICFENAKWAYVVGSAIALKKGCKNAAEAAEAIGIGLQAFCIPGSVADDRKVGIGHGNLAAMLLREETKCFAFLAGHESFAAAEGAIKIAAKADKVRKEPLRCILNGLGKDAAQIISRINGFTYVQTEFDYFTGELKVVREIAYSDGPRAKVKCYGADDVREGVAIMWKEGVDVSITGNSTNPTRFQHPVAGTYKKERVLAGKPYFSVASGGGTGRTLHPDNMAAGPASYGMTDTMGRMHSDAQFAGSSSVPAHVEMMGFLGIGNNPMVGCTVACAVDVATALSK	not soluble
SKRVEVLLTQLPAYNRLKTPYEAELIETAKKMTAPGKGLLAADESTGSCSKRFAGIGLSNTAEHRRQYRALMLECEGFEQYISGVILHDETVYQKAKTGETFPQYLRRRGVVPGIKTDCGLEPLVEGAKGEQMTAGLDGYIKRAKKYYAMGCRFCKWRNVYKIQNGTVSEAVVRFNAETLARYAILSQLCGLVPIVEPEVMIDGTHDIETCQRVSQHVWSEVVSALHRHGVVWEGCLLKPNMVVPGAESGLKGHAEQVAEYTVKTLARVIPPALPGVTFLSGGLSEVMASEYLNAMNNCPLPRPWKLTFSYARALQSSAIKRWGGKESGVEAGRRAFMHRAKMNSLAQLGKYNRADDDKDSQSLYVAGNT	soluble
MIKQDVICYEKEDVVKRNNINITGGGEKTVLLAHGFGCDQNMWRFMLPELEKQFTVIVFDYVGSGQSDLESFSTKRYSSLEGYAKDVEEILVALDLVNVSIIGHSVSSIIAGIASTHVGDRISDITMICPSPCFMNFPPDYVGGFERDDLEELINLMDKNYIGWANYLAPLVMGASHSSELIGELSGSFCTTDPIVAKTFAKATFFSDYRSLLEDISTPALIFQSAKDSLASPEVGQYMAENIPNSQLELIQAEGHCLHMTDAGLITPLLIHFIQNNQTRA	soluble
MSLIVKVSPKGSMDQLSQLEVDRLKKSAQSALYQLYRNCSLAVLAAGLKTDNSKALFEQYSDFDIHVLQRERGVKLELINPPEQAFVDGQIITGIQEHLFSVLRDILYISDKYDTLKHINLTNASHITNVVFDILRNARAIAPMKDPNVVVCWGGHSINAIEYQYTREVGYQLGLRELDICTGCGPGAMEGPMKGAAIGHSKQRIKNARYIGLTEPSIIAAEPPNQIVNELVILPDIEKRLEAFVRLGHGIIIFPGGAGTAEELLYILGILLNKENQETPFPLVLTGPSESADYFIKIDEFIAATLGPEAQQKYQIIIDNPAEVARVMKQGMEQVKNHRRTTGDAYQYQWGLKIEPEFQLPFIPTHDVMANLNLHFQSNKAELAANLRKAFSGIVAGNVKSETIKQIEQLGPFHIKGDPHLMELMDNLLGAFVAQHRMKLPGSAYVPCYQIVKEGHHHHHH	soluble
TEPPGVIIVGESEFSFHLGINLRDHGIPVMMFNLFENTSEKAHEAGFEVFKGNLLSSNDRIYSDLLRYNKCILMTQSFIFNSLAFNELVPEFGLNNVDMMPVSFNDEQARNNLNGPIRNHILFDENHTPRWFNQFITQHNIVEVPAEDYEKITEN	not soluble
MTDTQVTWLTQESHDRLKAELDQLIANRPVIAAEINDRREEGDLRENGGYHAAREEQGQQEARIRQLQDLLSNAKVGEAPKQSGVALPGSVVKVYYNGDKSDSETFLIATRQEGVSDGKLEVYSPNSPLGGALIDAKVGETRSYTVPNGSTVSVTLVSAEPYHS	soluble
KIPEFRDVLISTIGGPHAKLGYEIARALVEDKSGRIKLLYVGSSEKEREKAEKVFEEAMEILNGLNVEREFAISSSPSDVVAREAESFDLVIVGASERTFLKNFLTGLFPEKVVMKTSKTVAMTRKWVGLLNR	not soluble
MVKESGMASLLLENPYYGYRKPKDQLRSSLKNVSDLFVMGGALILESAALLHWLERDGFWPLGMTGISMGGHMASLAVTNWPKPIPLIPCLSWTTASSVFTTGVLSRAVNWRELEKQYATHTVYEEEIISMLEYCGTDSFRMGQEFVKNAPGSFDGLDLTQELLQSGQQVALRSSYSGRPASDQDSSVLMGRRERDGLDQMLSAVSSSAPHLDMLHAKSIACGSGQRQSLQRESLCFMKGVMDECTHIANFSVPVDPSLIIIVQAKEDAYVPRTGVRSLQEIWPGCEVRYLNGGHISAYLFKQGLFRQAIYDAYDRFLHKYSSL	soluble
SALSCSLQGPPEGSIENLINTISRDVTTLQSYMQRRKEEYDCILKTCPVCGAVEEYAFSTVSPTATFEQLNPENRILYELQQINEQRRTLYEDIVSVQQKPECELCLLCALHESAFECGATPTANSFTSQVQSQHTQQQQTPVFSESVVPRPTILSNKTRVFVV	soluble
GHMRRELAIEFSRVTESAALAGYKWLGRGDKNTADGAAVNAMRIMLNQVNIDGTIVIGEGEIDEAPMLYIGEKVGTGRGDAVDIAVDPIEGTRMTAMGQANALAVLAVGDKGCFLNAPDMYMEKLIVGPGAKGTIDLNLPLADNLRNVAAALGKPLSELTVTILAKPRHDAVIAEMQQLGVRVFAIPDGDVAASILTCMPDSEVDVLYGIGGAPEGVVSAAVIRALDGDMNGRLLARHDVKGDNEENRRIGEQELARCKAMGIEAGKVLRLGDMARSDNVIFSATGITKGDLLEGISRKGNIATTETLLIRGKSRTIRRIQSIHYLDRKDPEMQVHIL	soluble
MFQPVTQKRLTNVSVVRMRKGGKRFEIACYPNMVMAYREGHVRDLDEVIQVEDVFENVSKGKLAANADLERCFGTRDRHAVLLQILLHGDLQVSDRERQYQSTRKLHEIASVVAAKTISRETKKPLPVGLIEKALREIHFAVQPNRPAKAQALEVIPLLRAQSGLDLERARLRLRIHVPSQRDAKAVKARLEPLQQGETDGTHSSSRSDSVRMKDGSAAVESESEEWLPGGALLWTVQADPGAFREIEEIVQRETNQQGIVEVASLRVLDDEDESILS	not soluble
MSEPTYFMPPEWAPHASTWLSWPHKLESWPGKFEPVPAVFAELAYQLSRSETVNINVLDDAMEAQARELLKERDPEGKYAERIVFHRIPTNDAWCRDHGPNYVIRTQDGRRDKVIMNWEYNAWGGKYEPYDDDNAVPERVAKAQGLPMVSTGMVLEGGAIDVNGAGLLLTTTACLLNPNRNPSLGKAEIEAQLRRYLGIEKVLWLGDGIAGDDTDGHVDDMARFVNENTVVIAVEEDPEDENYKPLRENYELLKTMTGLDGKPLNIVKLPMPEPVYYDGERLPASYANFYIANTVVLVPTYRCPRDQQAIDILQQCFPKREVVGIDCSDLIWGLGAIHCVTHEEPAMLEHHHHHH	soluble
MPSETLWEIAKAEVEKRGINGSEGDGAEIAEKFVFFIGSKNGGKTTIILRCLDRDEPPKPTLALEYTYGRRAKGHNTPKDIAHFWELGGGTSLLDLISIPITGDTLRTFSLVLVLDLSKPNDLWPTMENLLQATKSHVDKVIMKLGKTNAKAVSEMRQKIWNNMPKDHPQDHELIDPFPVPLVIIGSKYDVFQDFESEKRKVICKTLRFVAHYYGASLMFTSKSEALLLKIRGVINQLAFGIDKSKSICVDQNKPLFITAGLDSFGQIGSPPVPENDIGKLHAHSPMELWKKVYEKLFPPKSINTLKDIKDPARDPQYAENEVDEMRIQKDLELEQYKRSSSKSWKQIELDS	not soluble
